We go through 17 molecules from publication PMC6854716, “Redesigning N-glycosylation sites in a GH3 β-xylosidase improves the enzymatic efficiency” (Biotechnology for Biofuels, 2019).

B1: BxlB (GH3 β-xylosidase): BxlBN7 (protein)
parent chain: MAVFKSWNLALLSSLFIPALCQSNYPDCTTGPLSELPICDTSLSPLERAKSLVSALTLEEKINNTGHEAAGSSRLGLPAYNWWNEALHGVAEKHGVSFEESGDFSYATSFPAPIVLGAAFNDALIRRVAEIISTEARAFSNSDHAGIDYWTPNVNPFKDPRWGRGQETPGEDPLHCSRYVKEFVGGLQGDDPEKPKVVATCKHLAAYDLEEWGGVSRFEFDAKVSAVDLLEYYLPPFKTCAVDASVGAFMCSYNALNGVPACADRYLLQTVLREHWGWEGPGHWVTGDCGAVERIQTYHHYVESGPEAAAAALNAGVDLDCGTWLPSYLGEAERQGLISNETLDAALTRLYTSLVQLGYFDPAEGQPLRSLGWDDVATSEAEELAKTVAIQGTVLLKNIDWTLPLKANGTLALIGPFINFTTELQSNYAGPAKHIPTMIEAAERLGYNVLTAPGTEVNSTSTDGFDDALAIAAEADALIFFGGIDNTVEEESLDRTRIDWPGNQEELILELAELGRPLTVVQFGGGQVDDSALLASAGVGAIVWAGYPSQAGGAGVFDVLTGKAAPAGRLPITQYPKSYVDEVPMTDMNLQPGTDNPGRTYRWYEDAVLPFGFGLHYTTFNVSWAKKAFGPYDAATLARGKNPSSNIVDTFSLAVTNTGDVASDYVALVFASAPELGAQPAPIKTLVGYSRASLIKPGETRKVDVEVTVAPLTRATEDGRVVLYPGEYTLLVDVNDEYPTAKFEIKGDVQVLEKFPLSGNDSD
B2: BxlB (GH3 β-xylosidase): BxlBN1;7 (protein)
parent chain: B1 parent chain
B3: BxlB (GH3 β-xylosidase): BxlBN1 (protein)
parent chain: B1 parent chain
B4: BxlB (GH3 β-xylosidase): BxlBN1;5 (protein)
parent chain: B1 parent chain
B5: BxlB (GH3 β-xylosidase): BxlBN5;7 (protein)
parent chain: B1 parent chain
B6: BxlB (GH3 β-xylosidase): BxlBN5 (protein)
parent chain: B1 parent chain
B7: BxlB (GH3 β-xylosidase): BxlBnon-glyc (protein)
parent chain: B1 parent chain
B8: BxlB (GH3 β-xylosidase): BxlBN1;5;7 (protein)
parent chain: B1 parent chain
B9: BxlB^wt (GH3 β-xylosidase BxlB) (Aspergillus nidulans FGSC A4) (protein)
chain: NYPDCTTGPLSELPICDTSLSPLERAKSLVSALTLEEKINNTGHEAAGSSRLGLPAYNWWNEALHGVAEKHGVSFEESGDFSYATSFPAPIVLGAAFNDALIRRVAEIISTEARAFSNSDHAGIDYWTPNVNPFKDPRWGRGQETPGEDPLHCSRYVKEFVGGLQGDDPEKPKVVATCKHLAAYDLEEWGGVSRFEFDAKVSAVDLLEYYLPPFKTCAVDASVGAFMCSYNALNGVPACADRYLLQTVLREHWGWEGPGHWVTGDCGAVERIQTYHHYVESGPEAAAAALNAGVDLDCGTWLPSYLGEAERQGLISNETLDAALTRLYTSLVQLGYFDPAEGQPLRSLGWDDVATSEAEELAKTVAIQGTVLLKNIDWTLPLKANGTLALIGPFINFTTELQSNYAGPAKHIPTMIEAAERLGYNVLTAPGTEVNSTSTDGFDDALAIAAEADALIFFGGIDNTVEEESLDRTRIDWPGNQEELILELAELGRPLTVVQFGGGQVDDSALLASAGVGAIVWAGYPSQAGGAGVFDVLTGKAAPAGRLPITQYPKSYVDEVPMTDMNLQPGTDNPGRTYRWYEDAVLPFGFGLHYTTFNVSWAKKAFGPYDAATLARGKNPSSNIVDTFSLAVTNTGDVASDYVALVFASAPELGAQPAPIKTLVGYSRASLIKPGETRKVDVEVTVAPLTRATEDGRVVLYPGEYTLLVDVNDEYPTAKFEIKGDVQVLEKFPLSGNDSD
notes: homologous secreted expression in A. nidulans A773 (pEXPYR, glaA promoter, A. niger glucoamylase signal peptide); purified by DEAE and Superdex 200; N-glycosylated at N63, N340, N408, N419, N458, N621, N760

Molecular target in one data set: not listed separately
Kind of data set: western blot of crude extracellular extract, polyclonal anti-BxlB. The conditions noted are these: glycan lost; control: BxlBwt.
For the molecule B1, the expression_or_secretion entry was “decreases”.
On the same count and under the same terms, next, B2: “decreases”.
For B3, the expression_or_secretion result is recorded as “decreases”.
Same read-out and setting: next, B4: “decreases”; B5: “decreases”.
Consider B6, for which the expression_or_secretion result is on record as “decreases”.
Still for that read-out and setting: next, B7: “decreases”; B8: “decreases”.

Molecular target in the next data set: not listed separately
Kind of data set: far-UV CD secondary structure. The conditions noted are these: glycan lost; control: BxlBwt.
For B1, the structure_or_conformation result is “no change”.
Same read-out and setting: next, B2: “no change”; B3: “no change”.
On the same count and under the same terms, to B4 belongs “no change”; to B5, “no change”.
The same measure, in the same setting: next, B6: “no change”; B7: “no change”; B8: “no change”.

Molecular target in a further data set: not listed separately
Kind of data set: Michaelis-Menten kinetics, purified enzyme, pH 5.0, 60 °C. The conditions noted are these: glycan lost; control: BxlBwt.
Consider B1, for which the “enzymatic_activity, kcat_Km” value is recorded as “decreases, 1.27 vs 6.34”.
With B2, the “enzymatic_activity, kcat_Km” value is recorded as “decreases, 0.57 vs 6.34”.
The same measure, in the same setting: next, B3: “decreases, 5.13 vs 6.34”.
Same read-out and setting: next, B4: “increases, 10.33 vs 6.34”; B5: “increases, 9.94 vs 6.34”; B6: “decreases, 0.61 vs 6.34”.
The same measure, in the same setting: next, B7: “decreases, 5.87 vs 6.34, BxlBnon-glyc catalytic efficiency was reduced by 7%”; B8: “increases, 9.51 vs 6.34, 50% higher catalytic efficiency as compared to the wild type”.

Molecular target in a further data set: not listed separately
In words: ρNP-X activity of intracellular extract. The conditions noted are these: glycan lost; control: BxlBwt.
B8: the “enzymatic_activity, fold_change” value is reported as “increases”.

Substrate in the next data set: O=[N+]([O-])c1ccc(O[C@@H]2OC[C@@H](O)[C@H](O)[C@H]2O)cc1
In words: purified protein. Format: biochemical, Aspergillus nidulans. The settings on record: 0.05 M ammonium acetate pH 5.0, 60 °C, 1–20 mM substrate.
Turning to B9, the Km turned out to be 2060 ± 130 µM, the Vmax came out at 9.55 µmol/min/mg, the catalytic constant (kcat) was 13.1 s⁻¹ and the catalytic efficiency (kcat/Km) came out at 6340 M⁻¹ s⁻¹.

In a further data set the test system is T1, O=[N+]([O-])c1ccc(O[C@@H]2OC[C@@H](O)[C@H](O)[C@H]2O)cc1.
T1 construct: homologous secreted expression in A. nidulans A773 (pEXPYR, glaA promoter, A. niger glucoamylase signal peptide); purified by DEAE and Superdex 200; N-glycosylated at N63, N340, N408, N419, N458, N621, N760
Kind of data set: purified protein. It is filed as biochemical, Aspergillus nidulans. The conditions noted are these: 0.05 M ammonium acetate pH 5.0, 60 °C, 1–20 mM substrate.
As for “BxlB^wt (GH3 β-xylosidase BxlB) (Aspergillus nidulans FGSC A4; N340Q/N408Q/N419Q/N458Q/N621Q/N63Q)”, the Km is 3190 ± 220 µM, the maximal velocity (Vmax) stood at 3.42 µmol/min/mg, the kcat is 4.37 s⁻¹ and the kcat/Km was 1270 M⁻¹ s⁻¹.
The corresponding values for “BxlB^wt (GH3 β-xylosidase BxlB) (Aspergillus nidulans FGSC A4; N340Q/N408Q/N419Q/N458Q/N621Q/N63Q/N760Q)” are 2360 ± 110 µM, 10.1 µmol/min/mg, 13.9 s⁻¹ and 5870 M⁻¹ s⁻¹.
Turning to “BxlB^wt (GH3 β-xylosidase BxlB) (Aspergillus nidulans FGSC A4; N340Q/N408Q/N419Q/N621Q/N63Q/N760Q)”, the Km is 2710 ± 210 µM, the Vmax was 6.08 µmol/min/mg and the kcat was found to be 3.71 s⁻¹.
Take “BxlB^wt (GH3 β-xylosidase BxlB) (Aspergillus nidulans FGSC A4; N340Q/N408Q/N419Q/N458Q/N621Q)”: the Km stood at 9920 ± 1050 µM, the Vmax amounted to 4.12 µmol/min/mg, the catalytic constant (kcat) worked out at 5.64 s⁻¹ and the specificity constant (kcat/Km) came out at 570 M⁻¹ s⁻¹.
In the case of “BxlB^wt (GH3 β-xylosidase BxlB) (Aspergillus nidulans FGSC A4; N340Q/N408Q/N419Q/N621Q/N63Q)”, the Michaelis constant (Km) amounted to 2810 ± 110 µM, the maximal velocity (Vmax) is 20.5 µmol/min/mg, the turnover number (kcat) worked out at 28 s⁻¹ and the specificity constant (kcat/Km) amounted to 9940 M⁻¹ s⁻¹.
The corresponding values for “BxlB^wt (GH3 β-xylosidase BxlB) (Aspergillus nidulans FGSC A4; N340Q/N408Q/N419Q/N621Q/N760Q)” are 2910 ± 180 µM, 21.9 µmol/min/mg, 30.1 s⁻¹ and 10300 M⁻¹ s⁻¹.
The corresponding values for “BxlB^wt (GH3 β-xylosidase BxlB) (Aspergillus nidulans FGSC A4; N340Q/N408Q/N419Q/N621Q)” are 2490 ± 430 µM, 17.3 µmol/min/mg, 23.7 s⁻¹ and 9510 M⁻¹ s⁻¹.

The subject of the next data set is O=[N+]([O-])c1ccc(O[C@@H]2OC[C@@H](O)[C@H](O)[C@H]2O)cc1. In words: purified protein. Format: biochemical, Aspergillus nidulans. The conditions noted are these: 0.05 M ammonium acetate pH 5.0, 60 °C, 1–20 mM substrate. The source holds these as a separate data set.
In the case of “BxlB^wt (GH3 β-xylosidase BxlB) (Aspergillus nidulans FGSC A4; N340Q/N408Q/N419Q/N458Q/N621Q/N760Q)”, the Km was 2530 ± 230 µM, the maximal velocity (Vmax) came out at 9.49 µmol/min/mg, the catalytic constant (kcat) was determined as 13 s⁻¹ and the kcat/Km came to 5130 M⁻¹ s⁻¹.

Molecular target in a further data set: not listed separately
In words: CD thermal melt, 20-100 °C. The conditions noted are these: glycan lost; control: BxlBwt.
For the molecule B1, the “stability_or_folding, Tm” value is listed as “decreases”.
Still for that read-out and setting: to B2 belongs “decreases”; to B3, “decreases”; to B4, “decreases, 61.1 vs 63.8”.
Same read-out and setting: to B5 belongs “decreases, 55.1 vs 63.8”; to B6, “decreases”; to B8, “decreases, 61.6 vs 63.8”.

One may read the Km as the substrate concentration at which the rate is half of its maximum. As a reminder, the Vmax is the rate approached at saturating substrate. Usually kcat stands for the number of substrate molecules converted per active site and unit of time at saturation. By kcat/Km is commonly meant the turnover number divided by the Michaelis constant.
